Target: the molecule itself
Experiment: SEC

B1: E. coli HemG (recombinant, six histidine-tagged) (enzyme, UniProt P0ACB4 1-181, looked up)
chain: MKTLILFSTRDGQTREIASYLASELKELGIQADVANVHRIEEPQWENYDRVVIGASIRYGHYHSAFQEFVKKHATRLNSMPSAFYSVNLVARKPEKRTPQTNSYARKFLMNSQWRPDRCAVIAGALRYPRYRWYDRFMIKLIMKMSGGETDTRKEVVYTDWEQVANFAREIAHLTDKPTLK
B1 was tested. Which “stoichiometry N” value did it give?
The value was 4.
